Biological target: T1, GST-GABARAPL2 (UniProt P60520 1-117)
T1 construct: GABARAPL2 of the bought GST fusion protein; source: bought: Proteintech (Ag1155)
Assay: pull-down; competitive GST pull-down: GST-GABARAPL2 on glutathione-conjugated Sepharose beads, SIK2 protein in solution, LIR peptide at 0, 5, 10, 20, 40 μmol/L; immunoblot
Conditions: both partners purified

T1 sequence (P60520 whole entry, the tested form may be a part): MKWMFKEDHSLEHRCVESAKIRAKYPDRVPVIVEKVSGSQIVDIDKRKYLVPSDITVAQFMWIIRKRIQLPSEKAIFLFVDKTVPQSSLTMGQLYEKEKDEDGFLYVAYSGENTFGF

B1: LC3-interacting region (LIR) 326–333 (FAAIYFLL) peptide (peptide)
peptide: FAAIYFLL
notes: SIK2 residues 326-333, the canonical LIR motif within 290-550; also called LIR peptide; source: synthetic peptide; bought: Sangon Biotech
Q: Does B1 bind?
A: binds

— PMC12548284, “SIK2-mediated phosphorylation of GABARAPL2 facilitates autophagosome–lysosome fusion and rescues neurodegeneration in an Alzheimer’s disease model” (Translational Neurodegeneration, 2025)
